Laboratory results: patent US11618913B2, “Method for preparing xyloglucan-oligosaccharides” (TECHNISCHE UNIVERSITÄT MÜNCHEN, priority 2017, dated 2023)
Entries after “also recorded” stand apart in the source; their conditions may differ.

What was measured:
Format in all cases: biochemical
[1] = Ki determination (end product inhibition) on Azo-Xyloglucan in presence of xyloglucan oligosaccharides; conditions: inhibition by xyloglucan oligosaccharides; non-competitive inhibition model; substrate 1-20 g/l
Method: To evaluate the suitability of SEQ ID NOs 1-4 for TKP hydrolysis, the Ki value of SEQ ID NO 3 was determined. Enzymatic activity was measured on Azo-Xyloglucan (Megazyme) according to the manufacturer's instruction. Substrate concentrations of 1-20 g/I were chosen and enzymatic activity was measured in the presence of increasing concentrations of xyloglucan oligosaccharides. Mode of Inhibition was assessed using a Lineweaver-Burke plot.

[2] = Hydrolysis of 20% (wt/vol) TKP/dTKP, XGOS release by HPAEC-PAD; conditions: 20% (wt/vol) dTKP/TKP, 60° C.
Method: For XGOS release 20% (wt/vol) 8 g of TKP or dTKP was dissolved in 40 ml demineralized water at 60° C. The enzyme was added at the desired concentrations, 3%, 0.65%, 0.05%, 0.03% or 0.006% (wt/wt TKP) referred to the substrate load. Incubation of the reaction mixture was carried out on a rotary shaker at 125 rpm and 60° C. The hydrolysis process was monitored by taking samples at different time points. The samples were centrifuged and the supernatant boiled for 5 min at 95° C. to denature residual proteins. For analysis, samples of the supernatant were withdrawn, tenfold diluted with double deionized water and measured by HPAEC-PAD.
For the analysis by HPAEC-PAD an ICS 3000 Dionex chromatography system from Thermo Fisher Scientific (Waltham, USA) equipped with a CarboPac™ PA1 column (4×250 mm) and a PA1-precolumn (4×50 mm) was used. The system was set up using PEEK tubing (0.25 mm i.d.), a GM-4 gradient mixer (2 mm), an ED amperometry cell with 0.25 microL channel volume, a pH-Ag/AgCl reference electrode, 0.002″ gasket and disposable gold electrodes. Runs were performed at a column temperature of 30° C. with an injection volume of 25 microL and a flow rate of 1 mL/min. […]
Quantification was performed using a XGOS standard mixture from Megazyme with 0.4 g/L, 0.2 g/L, 0.1 g/L, and 0.05 g/L.

[3] = Specific enzyme activity, reducing sugars by DNSA assay; conditions: dockerin domain deleted
Method: Enzyme activity: the release of micromol reducing sugars from arabinoxylan per mg of enzyme was determined with the DNSA assay.
Specific enzyme activity was determined by using a model substrate such as barley-beta-glucan (Megazyme). Endoglucanase activity is defined as the generation of reducing sugars from the model substrate. One unit of enzyme activity is defined as the amount of reducing sugars in micromol generated per mg of enzyme in one minute at 60° C. To define the enzyme profile and temperature and pH optimum the endoglucanases (50 ng/reaction) were incubated for 30 minutes at a temperature range from 50 to 80° C. in presence of 1% (wt/vol) barley-beta-glucan solved in citrate buffer with varying pH (range 4.0-8.0) (solution A: 0.2 M citric acid, 0.1 M NaCl; solution B: 0.4 M Na2HPO4, 0.1 M NaCl). Reducing sugars were measured by 3,5-dinitrosalicylic acid (DNSA) method: 50 microL sample were mixed with 75 microL DNSA-solution (10 g/L DNSA, 200 g/L K^+-Na^+-Tartrate, 10 g/L NaOH, 0.5 g/L Na2SO4, 2 g/L Phenol) in microtiter plates, incubated for 5 minutes at 95° C., cooled on ice and the absorption determined at 540 nm. For calibration, glucose solutions between 0 and 2 mg/mL were used.

B1: SEQ ID NO 3: endoglucanase obtained from SEQ ID NO: 1 by deleting the dockerin domain (protein)
chain: AKITENYQFDSRIRLNSIGFIPNHSKKATIAANCSTFYVVKEDGTIVYTGTATSMFDNDTKETVYIADFSSVNEEGTYYLAVPGVGKSVNFKIAMNVYEDAFKTAMLGMYLLRCGTSVSATYNGIHYSHGPCHTNDAYLDYINGQHTKKDSTKGWHDAGDYNKYVVNAGITVGSMFLAWEHFKDQLEPVALEIPEKNNSIPDFLDELKYEIDWILTMQYPDGSGRVAHKVSTRNFGGFIMPENEHDERFFVPWSSAATADFVAMTAMAARIFRPYDPQYAEKCINAAKVSYEFLKNNPANVFANQSGFSTGEYATVSDADDRLWAAAEMWETLGDEEYLRDFENRAAQFSKKIEADFDWDNVANLGMFTYLLSERPGKNPALVQSIKDSLLSTADSIVRTSQNHGYGRTLGTTYYWGCNGTVVRQTMILQVANKISPNNDYVNAALDAISHVFGRNYYNRSYVTGLGINPPMNPHDRRSGADGIWEPWPGYLVGGGWPGPKDWVDIQDSYQTNEIAINWNAALIYALAGFVNYN
modifications: Recombinat polypeptide
- Ki [1]: 16.8 mM
- degree of hydrolysis after 24 h ([2]; 0.006% (wt/wt) enzyme): over 80%
- enzyme activity increase in comparison to SEQ ID NO 1 ([3]; SEQ ID NO 1 activity set to 100%): 4 fold

B2: SEQ ID NO 2: wildtype glycoside hydrolase family 5 endoglucanase from Herbivorax saccincola DSM101079 (protein, listed as Herbivorax saccincola)
chain: STAYTGMRDITSLELVNEMRIGWNLGNTLDAIGGETNWGNPKTTKEMIDKVKEMGFNTVRFPVTWGGHVGPAPDYKIDEGWLNRVEEVVNYALSNDMYAIINLHHENSWLVPTYAQEKRSTEQLVKIWEQVATRFKDYGDYLIFETMNEPRVENSPYEWSGGTPENRHVINNFNLAAVNTIRSTGGNNAKRHIMIPAHAASAIDIALNDLVIPNNDDRIIISVHNYSPYFFAMDVNGTASWGSDYDKASLAAELEALYNRFIKNGRAVVIGEFGSINKNNLSDRIRHAEFFAKEARKRGITVIWWDNGYNEGGKAESYALLDRRNLTWYHPEIAEALVRGAGGVPEPTPTPTPEPTPSPGEDILYGDLNGDGIINSIDYNLLNRYILEVIDDLPVENYSKVADLNGDGVINSNDAVLLGRFILEIVDKFPVDK
- hydrolysis of TKP to DP7-DP9 after 24 h ([2]; 0.03% (wt/wt) enzyme): Complete hydrolysis; also recorded: completely

B3: SEQ ID NO 4: endoglucanase obtained from SEQ ID NO: 2 by deleting the dockerin domain (protein)
chain: STAYTGMRDITSLELVNEMRIGWNLGNTLDAIGGETNWGNPKTTKEMIDKVKEMGFNTVRFPVTWGGHVGPAPDYKIDEGWLNRVEEVVNYALSNDMYAIINLHHENSWLVPTYAQEKRSTEQLVKIWEQVATRFKDYGDYLIFETMNEPRVENSPYEWSGGTPENRHVINNFNLAAVNTIRSTGGNNAKRHIMIPAHAASAIDIALNDLVIPNNDDRIIISVHNYSPYFFAMDVNGTASWGSDYDKASLAAELEALYNRFIKNGRAVVIGEFGSINKNNLSDRIRHAEFFAKEARKRGITVIWWDNGYNEGGKAESYALLDRRNLTWYHPEIAEALVRGAGGVPEPTPTPTPEPTPSPG
- enzyme activity increase in comparison to wildtype SEQ ID NO 2 ([3]; SEQ ID NO 2 activity set to 100%): 7 fold
